Assay results reported in patent publication US20250282868A1 (ITEOS BELGIUM, published 2025).

Assays:
human TREM2 [1] = target: T1, human TREM2 (human, UniProt Q9NZC2 19-230); experiment: flow cytometry, M2a-like macrophages
T1 construct: on THP-1 WT cells and M2a-like macrophages (endogenous) and on CHO or HEK293T cells overexpressing human TREM2 with DAP12; also called hTREM2
T1 sequence: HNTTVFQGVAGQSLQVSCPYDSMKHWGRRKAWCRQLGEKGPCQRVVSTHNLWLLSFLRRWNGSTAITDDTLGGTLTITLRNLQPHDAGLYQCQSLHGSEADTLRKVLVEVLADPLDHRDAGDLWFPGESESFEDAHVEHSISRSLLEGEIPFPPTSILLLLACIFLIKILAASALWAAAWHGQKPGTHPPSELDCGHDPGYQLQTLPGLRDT
Protocol: (§1) M2a-like macrophages were produced in vitro from monocytes of healthy donors. Briefly, after PBMCs isolation from peripheral blood using Lymphoprep™ gradient, CD14+ cells were purified and seeded in presence of MCSF 50 ng/ml for 6 days. Macrophages were then cultured with IL-13 and IL-4 at a concentration of 20 ng/ml for two additional days and then used for a cell-based binding assay.
(§2) M2a-like macrophages were incubated with anti-TREM2 antibodies (dose-response curve with 11 concentrations from 10 μg/ml to 0.0001 μg/ml) for 30 min at 4° C. After washing, bound antibodies were detected with a secondary anti-human IgG Fc PE-labelled for 30 min at 4° C. Fluorescence intensity was measured by flow cytometry. Equilibrium dissociation constant (kD) was then calculated for each antibody using median MFI normalized over isotype control.

mouse TREM2 [2] = target: T2, mouse TREM2 (mouse, UniProt Q99NH8 19-227); experiment: MFI on CT26 cells over-expressing mouse TREM2 and DAP12; column 'Considered cross-reactive'
T2 construct: whole, on cells
T2 sequence (looked up): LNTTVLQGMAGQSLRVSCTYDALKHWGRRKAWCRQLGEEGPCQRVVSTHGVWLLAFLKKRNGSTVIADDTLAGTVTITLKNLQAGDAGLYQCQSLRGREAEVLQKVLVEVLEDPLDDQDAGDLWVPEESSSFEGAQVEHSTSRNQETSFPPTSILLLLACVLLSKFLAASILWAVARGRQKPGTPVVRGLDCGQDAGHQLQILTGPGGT
Protocol: (§3) Cross-reactivity to mouse TREM2 was assessed using CT26 cells over-expressing mouse TREM2 and DAP12 (Table 23). Eight anti-TREM2 antibodies and both benchmark antibodies were considered cross-reactive to mouse TREM2 (MFI higher than isotype control and fold change of CT26-TREM2 over the CT26 Empty Vector higher than 5). The remaining anti-TREM2 antibodies were considered as being low to not cross-reactive (fold change less than 5). EOS006171 was not tested due to clear non-cross-reactivity preliminary data by octet (data not shown).

mouse TREM2 [3] = target: T2, mouse TREM2; experiment: MFI on CT26 cells over-expressing mouse TREM2 and DAP12
Protocol: as §3

human TREM2 [4] = target: T1, human TREM2; experiment: cell-based or functional assay
cynomolgus TREM2 [5] = target: T3, cynomolgus TREM2 (cynomolgus, UniProt A0A2K5UY34 49-260); experiment: MFI on CHO cells over-expressing cynoTREM2-DAP12 vs CHO empty vector
T3 construct: also called cynoTREM2; cTREM2
T3 sequence: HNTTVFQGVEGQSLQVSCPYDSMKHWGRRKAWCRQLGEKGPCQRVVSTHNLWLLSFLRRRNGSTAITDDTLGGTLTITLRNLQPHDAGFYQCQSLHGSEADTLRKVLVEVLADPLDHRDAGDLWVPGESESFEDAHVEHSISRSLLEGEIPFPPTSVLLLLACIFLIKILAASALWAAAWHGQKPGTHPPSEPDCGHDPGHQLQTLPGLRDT
Protocol: (§4) Cross-reactivity of anti-TREM2 antibodies to cynomolgus TREM2 (cynoTREM2) was assessed using CHO over-expressing cynoTREM2-DAP12 (Table 22). Benchmark antibodies, AB52 and PN-37012, were examined for comparison.

cynomolgus TREM2 [6] = target: T3, cynomolgus TREM2; experiment: MFI on CHO cells over-expressing cynoTREM2-DAP12
Protocol: as §4

human TREM2 [7] = target: T1, human TREM2; experiment: flow cytometry, THP-1 WT vs THP-1 TREM2 KO cells, 10 ug/ml
Protocol: (§5) In order to test specificity of selected antibodies to TREM2, binding was tested by flow cytometry on THP-1 TREM2 KO (clone, produced using CRISPR technology in house) and on THP-1 WT. Cells were incubated with selected anti-TREM2 antibodies (final concentration of 10 μg/ml) for 30 min at 4° C. After washing, bound antibodies were detected with a secondary anti-human IgG Fc PE-labelled for 30 min at 4° C. Fluorescence intensity was measured by flow cytometry.

human TREM2 [8] = target: T1, human TREM2; experiment: cell-based or functional assay; remark: listed apart in the source
human TREM2 [9] = target: T1, human TREM2; experiment: flow cytometry, THP-1 WT cells, 10 ug/ml
Protocol: as §5

human TREM2 [10] = target: T1, human TREM2; experiment: flow cytometry, M2a-like macrophages, dose-response
Protocol: as §1, §2

mouse TREM2 [11] = target: T2, mouse TREM2; experiment: MFI on CT26 cells over-expressing mouse TREM2 and DAP12 vs CT26 empty vector
Protocol: as §3

human TREM2 [12] = target: T1, human TREM2; experiment: flow cytometry, competition with LDL-Alexafluor-488 on CHO cells overexpressing human TREM2/DAP12
Protocol: (§6) Exemplary anti-TREM2 antibodies were tested in order to characterize their ability to enter in competition with TREM2 ligand, LDL, on CHO overexpressing human TREM2/DAP12. Antibodies (dose response curves from 66.65 nM to 0.07 nM) were incubated for 30 min with cells in a soluble fashion, followed by an incubation with LDL coupled with Alexafluor-488 (at 1 μg/mL final) for 30 min. Finally, after 2 washes, cells were acquired on flow cytometer. The median MFI of Alexafluor-488 was used to plot the graphs. Benchmark antibody MOR044746 was used as positive control.

human TREM2 [13] = target: T1, human TREM2; experiment: flow cytometry, competition with LDL-Alexafluor-488 on CHO cells overexpressing human TREM2/DAP12; only 1 value generated
Protocol: as §6

Row | Binder | Fold over isotype (human TREM2 [1]) | binding result (mouse TREM2 [2]) | Binding to CT26-TREM2 MFI (mouse TREM2 [3]) | Stabilization ratio (Mean of 2 replicates) (human TREM2 [4]) | MFI Fold change (CHO-cTREM2 over CHO-EV) (cynomolgus TREM2 [5]) | Binding to CHO-cTREM2 MFI (cynomolgus TREM2 [6]) | MFI Fold change (THP-1 WT over THP-1 TREM2 KO) (human TREM2 [7]) | Fold over isotype control at 66 nM (human TREM2 [8]) | pSYK/TotSYK EC50 (nM) (human TREM2 [8]) | Fold over isotype control THP1 WT (human TREM2 [9]) | Kd (human TREM2 [10]) | MFI Fold change (CT26-TREM2 over CT26-EV) (mouse TREM2 [11]) | IC50 (human TREM2 [12]) | IC50 (human TREM2 [13])
1 | EOS006167 (antibody, V domains shown) VH: not shown VL: EIVLTQSPGTLSLSPGERATLSCRASQSVSSSYLAWYQQKPGQAPRLLIYGASSRATGIPDRFSGSGSGTDFTLTISRLEPEDFAVYYCQQYDDVPYTFGGGTKVEIK | 1.6 fold | no binding (tested: fold change less than 5) | 2060 MFI | 0.82 ratio | 128 fold | 7220 MFI | 2.2 fold | 1.57 fold | 49.9 nM | 2.1 fold | 10.2 nM | 4.7 fold | – | –
2 | EOS006168 (antibody, V domains shown) VH: not shown VL: EIVLTQSPGTLSLSPGERATLSCRASQSVSSSFLAWYQQKPGQAPRLLIYGASSRATGIPDRFSGSGSGTDFTLTISRLEPEDFAVYYCQQYYSPPITFGGGTKVEIK | 1.9 fold | no binding (tested: fold change less than 5) | 655 MFI | 0.8 ratio | 3.3 fold | 194 MFI | 2.3 fold | 1.99 fold | 96 nM | 3 fold | 2.99 nM | 1.6 fold | – | –
3 | EOS006165 (antibody, V domains shown) VH: QVQLVQSGAEVKKPGSSVKVSCKASGGTFSSYAISWVRQAPGQGLEWMGGIIPISGTANYAQKFQGRVTITADESTSTAYMELSSLRSEDTAVYYCARTQEYTAFDIWGQGTMVTVSS VL: EIVLTQSPATLSLSPGERATLSCRASQSVSSYLAWFQQKPGQAPRLLIYDASNRATGIPARFSGSGSGTDFTLTISSLEPEDFAVYYCQQDYHWPITFGGGTKVEIK | 2.2 fold | no binding (tested: fold change less than 5) | 649 MFI | 0.54 ratio | 189 fold | 8500 MFI | 2.5 fold | 1.03 fold | – | 1.7 fold | 0.41 nM | 2.3 fold | 5.29 nM | –
4 | EOS006172 (antibody, V domains shown) VH: QVQLVQSGAEVKKPGSSVKVSCKASGGTFSSYAISWVRQAPGQGLEWMGGIIPISGTANYAQKFQGRVTITADESTSTAYMELSSLRSEDTAVYYCARTQEYTLFDIWGQGTMVTVSS VL: EIVLTQSPATLSLSPGERATLSCRASQSVSSYLAWFQQKPGQAPRLLIYDASNRATGIPARFSGSGSGTDFTLTISSLEPEDFAVYYCQQDFHWPITFGGGTKVEIK | 9.8 fold | no binding (tested: fold change less than 5) | 1660 MFI | 0.46 ratio | 418 fold | 17200 MFI | 8.9 fold | 0.59 fold | – | 8.7 fold | 0.09 nM | 4.9 fold | 0.115 nM | –
5 | EOS006162 (antibody, V domains shown) VH: QVQLVQSGAEVKKPGSSVKVSCKASGGTFSSYAISWVRQAPGQGLEWMGGIIPISGTANYAQKFQGRVTITADESTSTAYMELSSLRSEDTAVYYCARTQEYTLFDSWGQGTMVTVSS VL: EIVLTQSPATLSLSPGERATLSCRASQSVSSYLAWFQQKPGQAPRLLIYDASNRATGIPARFSGSGSGTDFTLTISSLEPEDFAVYYCQQDYHWPITFGGGTKVEIK | 10.8 fold | no binding | 2000 MFI | 0.4 ratio | 393 fold | 17100 MFI | 11 fold | 0.785 fold | – | 9.9 fold | 0.13 nM | 6.4 fold | 0.116 nM | –
6 | EOS004283 (antibody, human IgG1, kappa, V domains shown) VH: QVQLVQSGAEVKKPGSSVKVSCKASGGTFAQYAISWVRQAPGQGLEWMGVIIPDSGTANYAQKFQGRVTITADESTSTAYMELSSLRSEDTAVYYCARTQENTIFDIWGQGTLVTVSS VL: EIVLTQSPATLSLSPGERATLSCRASQSVSSYLAWFQQKPGQAPRLLIYDASNRATGIPARFSGSGSGTDFTLTISSLEPEDFAVYYCQQDYEWPITFGGGTKVEIKR | – | – | – | – | – | – | – | 0.267 fold | – | – | – | – | – | 0.138 nM
7 | EOS006170 (antibody, V domains shown) VH: QVQLQESGPGLVKPSGTLSLTCAVSGGSISSSNWWSWVRQPPGKGLEWIGEIYHSGSTNYNPSLKSRVTISVDKSKNQFSLKLSSVTAADTAVYYCARDTKYQAGMDVWGQGTTVTVSS VL: DIQMTQSPSSLSASVGDRVTITCQASQDISNYLNWYQQKPGKAPKLLIYDASNLATGVPSRFSGSGSGTDFTFTISSLQPEDIATYYCQQYVVFPTFGGGTKVEIK | 1.1 fold | no binding (tested: fold change less than 5) | 322 MFI | 0.57 ratio | 42.8 fold | 1650 MFI | 3.2 fold | 1.31 fold | – | 2.3 fold | 8.2 nM | 1 fold | – | –
